The values below come from PMC11969024 (2025).

To fix the notation:
B1: peptide HD2 (from tick evasin EVA4) / CCL22 (biotinylated, synthetic) (parent complex)
chain 1: EEDDYTAYAPLTCYFT
chain 2: GPYGANMEDSVCCRDYVRYRLPLRVVKHFYWTSDSCPRPGVVLLTFRDKEICADPRVPWVKMILNKLSQ
B2: peptide HD2 (from tick evasin EVA4) / CCL11 (biotinylated, synthetic) (parent complex)
chain 1: EEDDYTAYAPLTCYFT
chain 2: not shown

The variants in the first assay derive from B1.
For the variant chain 1 EEDDYTALAPLTCYFT [chain 1 Y8L], the enrichment is -7.77 log2 (difference from the parental peptide).
On the same count and under the same terms, under chain 1 EEDDYLAYAPLTCYFT [chain 1 T6L] stands -2.3 log2 (difference from the parental peptide); under chain 1 EEHDYTAYAPLTCYFT [chain 1 D3H], -5.38 log2 (difference from the parental peptide); under chain 1 EEDDYTAYAPLTAYFT [chain 1 C13A], -6.82 log2 (difference from the parental peptide).
Turning to chain 1 EEDDYTAYAPLTMYFT [chain 1 C13M], the enrichment was -3.12 log2 (difference from the parental peptide).
As for chain 1 EEDDYTIYAPLTCYFT [chain 1 A7I], the enrichment was -3 log2 (difference from the parental peptide).

The next assay covers variants of B2.
In the case of chain 1 Y8M, the enrichment was -6.75 log2 (difference from the parental peptide).
As to chain 1 Y8V, the enrichment is -8.13 log2 (difference from the parental peptide).
Consider chain 1 Y8N, for which the enrichment is -5.38 log2 (difference from the parental peptide).
Same read-out and setting: then chain 1 Y8A, with -4.4 log2 (difference from the parental peptide); and chain 1 Y8F, with 1.62 log2 (difference from the parental peptide); and chain 1 Y8W, with -1.91 log2 (difference from the parental peptide).
Take chain 1 Y8L: the enrichment was -9.35 log2 (difference from the parental peptide).
Still for that read-out and setting: then chain 1 P10Y, with -5.97 log2 (difference from the parental peptide).
On the same count and under the same terms, under chain 1 P10L stands -9.08 log2 (difference from the parental peptide); under chain 1 P10Q, -3.8 log2 (difference from the parental peptide).
For chain 1 A9G, the enrichment was -4.51 log2 (difference from the parental peptide).
For the variant chain 1 A9S, the enrichment is -1.28 log2 (difference from the parental peptide).
Still for that read-out and setting: then chain 1 A9L, with -7.13 log2 (difference from the parental peptide); and chain 1 A9E, with 0.893 log2 (difference from the parental peptide).
Turning to chain 1 A9V, the enrichment is -5.98 log2 (difference from the parental peptide).
Turning to chain 1 A9K, the enrichment was -4.4 log2 (difference from the parental peptide).
The same measure, in the same setting: then chain 1 A9R, with -1.6 log2 (difference from the parental peptide); and chain 1 A9Y, with -4.85 log2 (difference from the parental peptide).
On to chain 1 A9M, for which the enrichment is -3.46 log2 (difference from the parental peptide).
On to chain 1 F15N, for which the enrichment is -1.58 log2 (difference from the parental peptide).
Consider chain 1 F15W, for which the enrichment is -1.47 log2 (difference from the parental peptide).
As to chain 1 F15V, the enrichment was 0.59 log2 (difference from the parental peptide).
For the variant chain 1 F15S, the enrichment was 0.275 log2 (difference from the parental peptide).
The same measure, in the same setting: under chain 1 F15Y stands 0.26 log2 (difference from the parental peptide).
Regarding chain 1 F15P, the enrichment is -0.525 log2 (difference from the parental peptide).
For the variant chain 1 F15H, the enrichment was -0.581 log2 (difference from the parental peptide).
As to chain 1 F15K, the enrichment was -4.78 log2 (difference from the parental peptide).
The same measure, in the same setting: then chain 1 F15G, with -2.42 log2 (difference from the parental peptide); and chain 1 F15C, with -4.03 log2 (difference from the parental peptide); and chain 1 D3S, with -2.82 log2 (difference from the parental peptide).
Regarding chain 1 D3W, the enrichment was -3.25 log2 (difference from the parental peptide).
Take chain 1 D3H: the enrichment is -2.18 log2 (difference from the parental peptide).
With chain 1 D3M, the enrichment was -2.72 log2 (difference from the parental peptide).
With chain 1 D3C, the enrichment is -10.5 log2 (difference from the parental peptide).
As to chain 1 D3I, the enrichment is -3.65 log2 (difference from the parental peptide).
Same read-out and setting: then chain 1 D3P, with -3.5 log2 (difference from the parental peptide).
Regarding chain 1 D3L, the enrichment is -3.39 log2 (difference from the parental peptide).
On to chain 1 D3N, for which the enrichment is -2.05 log2 (difference from the parental peptide).
Same read-out and setting: then chain 1 A7M, with 1.99 log2 (difference from the parental peptide); and chain 1 A7Y, with -0.616 log2 (difference from the parental peptide).
With chain 1 A7S, the enrichment is 0.886 log2 (difference from the parental peptide).
Consider chain 1 A7G, for which the enrichment is -1.16 log2 (difference from the parental peptide).
With chain 1 A7P, the enrichment is 0.578 log2 (difference from the parental peptide).
For the variant chain 1 A7N, the enrichment was 1.29 log2 (difference from the parental peptide).
On the same count and under the same terms, then chain 1 A7E, with 2.59 log2 (difference from the parental peptide).
On to chain 1 A7V, for which the enrichment is -0.751 log2 (difference from the parental peptide).
With chain 1 A7R, the enrichment was 0.794 log2 (difference from the parental peptide).
With chain 1 A7T, the enrichment was -0.43 log2 (difference from the parental peptide).
As for chain 1 A7F, the enrichment was -1.71 log2 (difference from the parental peptide).
chain 1 T12F: the enrichment was -3.13 log2 (difference from the parental peptide).
Take chain 1 T12M: the enrichment was -1.76 log2 (difference from the parental peptide).
With chain 1 T12Y, the enrichment is -1.75 log2 (difference from the parental peptide).
On to chain 1 T12P, for which the enrichment was -3.61 log2 (difference from the parental peptide).
Still for that read-out and setting: under chain 1 T12A stands -2.95 log2 (difference from the parental peptide).
On the same count and under the same terms, under chain 1 T12Q stands -1.12 log2 (difference from the parental peptide).
For chain 1 T12H, the enrichment was -1.8 log2 (difference from the parental peptide).
On the same count and under the same terms, under chain 1 T12K stands -5.35 log2 (difference from the parental peptide).
For chain 1 E2W, the enrichment is -2.09 log2 (difference from the parental peptide).
Turning to chain 1 E2R, the enrichment is -4.24 log2 (difference from the parental peptide).
In the case of chain 1 E2A, the enrichment is -0.825 log2 (difference from the parental peptide).
As to chain 1 E2D, the enrichment is 1.39 log2 (difference from the parental peptide).
Same read-out and setting: then chain 1 E2P, with -2.92 log2 (difference from the parental peptide).
Take chain 1 E2T: the enrichment was -2.27 log2 (difference from the parental peptide).
On the same count and under the same terms, under chain 1 E2L stands -1.7 log2 (difference from the parental peptide).
Turning to chain 1 E2V, the enrichment is -1.61 log2 (difference from the parental peptide).
Same read-out and setting: then chain 1 E2H, with -2.49 log2 (difference from the parental peptide); and chain 1 T16M, with 0.752 log2 (difference from the parental peptide).
Same read-out and setting: under chain 1 T16K stands -0.03 log2 (difference from the parental peptide).
In the case of chain 1 T16W, the enrichment was -0.88 log2 (difference from the parental peptide).
For the variant chain 1 T16R, the enrichment is -1.09 log2 (difference from the parental peptide).
chain 1 T16L: the enrichment is 0.412 log2 (difference from the parental peptide).
The same measure, in the same setting: then chain 1 T16C, with -0.0325 log2 (difference from the parental peptide); and chain 1 T16F, with -0.46 log2 (difference from the parental peptide); and chain 1 T16Q, with 1.62 log2 (difference from the parental peptide).
As for chain 1 T16A, the enrichment was 1.44 log2 (difference from the parental peptide).
As for chain 1 T16H, the enrichment was 0.297 log2 (difference from the parental peptide).
Consider chain 1 T16Y, for which the enrichment is -0.239 log2 (difference from the parental peptide).
Same read-out and setting: under chain 1 Y14R stands -8.35 log2 (difference from the parental peptide).
As for chain 1 Y14T, the enrichment is -4.02 log2 (difference from the parental peptide).
The same measure, in the same setting: then chain 1 Y14V, with -3.71 log2 (difference from the parental peptide); and chain 1 Y14E, with -7.34 log2 (difference from the parental peptide); and chain 1 Y14D, with -4.78 log2 (difference from the parental peptide).
Take chain 1 Y14F: the enrichment was 0.149 log2 (difference from the parental peptide).
For the variant chain 1 Y5G, the enrichment was -5.68 log2 (difference from the parental peptide).
In the case of chain 1 Y5H, the enrichment was -6.32 log2 (difference from the parental peptide).
Take chain 1 Y5V: the enrichment was -5.26 log2 (difference from the parental peptide).
Turning to chain 1 Y5D, the enrichment is -3.62 log2 (difference from the parental peptide).
Same read-out and setting: then chain 1 Y5F, with 0.0717 log2 (difference from the parental peptide).
On to chain 1 Y5A, for which the enrichment is -6.65 log2 (difference from the parental peptide).
Regarding chain 1 Y5T, the enrichment is -4.78 log2 (difference from the parental peptide).
Turning to chain 1 Y5N, the enrichment is -5.96 log2 (difference from the parental peptide).
With chain 1 Y5S, the enrichment is -5.35 log2 (difference from the parental peptide).
chain 1 Y5M: the enrichment was -1.54 log2 (difference from the parental peptide).
The same measure, in the same setting: under chain 1 D4G stands -4.8 log2 (difference from the parental peptide); under chain 1 D4N, -2.87 log2 (difference from the parental peptide); under chain 1 D4S, -3.54 log2 (difference from the parental peptide).
Same read-out and setting: then chain 1 D4A, with -3.23 log2 (difference from the parental peptide).
Still for that read-out and setting: then chain 1 D4L, with -4.32 log2 (difference from the parental peptide); and chain 1 D4P, with -3.25 log2 (difference from the parental peptide).
With chain 1 D4K, the enrichment was -5.45 log2 (difference from the parental peptide).
Take chain 1 D4W: the enrichment is -3.16 log2 (difference from the parental peptide).
For chain 1 D4M, the enrichment is -3.45 log2 (difference from the parental peptide).
In the case of chain 1 D4Y, the enrichment was -1.9 log2 (difference from the parental peptide).
Same read-out and setting: then chain 1 D4T, with -4.2 log2 (difference from the parental peptide); and chain 1 D4E, with -0.216 log2 (difference from the parental peptide).
Turning to chain 1 D4I, the enrichment is -4.32 log2 (difference from the parental peptide).
In the case of chain 1 D4R, the enrichment is -6.08 log2 (difference from the parental peptide).
Still for that read-out and setting: under chain 1 D4F stands -4.42 log2 (difference from the parental peptide); under chain 1 D4Q, -3.06 log2 (difference from the parental peptide); under chain 1 T6L, -2.13 log2 (difference from the parental peptide).
For chain 1 T6N, the enrichment is 1.61 log2 (difference from the parental peptide).
The same measure, in the same setting: then chain 1 T6Q, with 0.834 log2 (difference from the parental peptide).
As to chain 1 T6I, the enrichment was -5.35 log2 (difference from the parental peptide).
In the case of chain 1 T6A, the enrichment was 1.96 log2 (difference from the parental peptide).
chain 1 T6M: the enrichment is -0.715 log2 (difference from the parental peptide).
The same measure, in the same setting: then chain 1 T6D, with 3.92 log2 (difference from the parental peptide).
As for chain 1 T6F, the enrichment was -4.68 log2 (difference from the parental peptide).
With chain 1 T6E, the enrichment is 3.27 log2 (difference from the parental peptide).
As to chain 1 T6K, the enrichment is -1.28 log2 (difference from the parental peptide).
On to chain 1 L11H, for which the enrichment is 0.483 log2 (difference from the parental peptide).
On to chain 1 L11C, for which the enrichment is 1.22 log2 (difference from the parental peptide).
chain 1 L11D: the enrichment was -6.85 log2 (difference from the parental peptide).
For the variant chain 1 L11N, the enrichment is -4.38 log2 (difference from the parental peptide).
On to chain 1 L11P, for which the enrichment was -8.67 log2 (difference from the parental peptide).
In the case of chain 1 L11R, the enrichment is -0.735 log2 (difference from the parental peptide).
In the case of chain 1 L11S, the enrichment was -0.475 log2 (difference from the parental peptide).
chain 1 C13H: the enrichment was -9.22 log2 (difference from the parental peptide).
Turning to chain 1 C13M, the enrichment is -6.39 log2 (difference from the parental peptide).
Same read-out and setting: under chain 1 C13A stands -8.03 log2 (difference from the parental peptide).
As to chain 1 C13Y, the enrichment was -6.32 log2 (difference from the parental peptide).
On to chain 1 C13Q, for which the enrichment was -8.37 log2 (difference from the parental peptide).
As to chain 1 C13S, the enrichment was -5.22 log2 (difference from the parental peptide).
Regarding chain 1 E1T, the enrichment was -0.645 log2 (difference from the parental peptide).
Consider chain 1 E1V, for which the enrichment is -1.08 log2 (difference from the parental peptide).
Regarding chain 1 E1H, the enrichment is -1.51 log2 (difference from the parental peptide).
For the variant chain 1 E1A, the enrichment was -0.354 log2 (difference from the parental peptide).
With chain 1 E1S, the enrichment is -0.538 log2 (difference from the parental peptide).
As to chain 1 E1F, the enrichment is -2.2 log2 (difference from the parental peptide).
Take chain 1 E1G: the enrichment is -0.291 log2 (difference from the parental peptide).
Consider chain 1 E1K, for which the enrichment was -2.4 log2 (difference from the parental peptide).
Take chain 1 E1R: the enrichment was -2.69 log2 (difference from the parental peptide).
As for chain 1 E1P, the enrichment was -1 log2 (difference from the parental peptide).
